# Patent publication US20240209100A1 (DIAGONAL THERAPEUTICS, published 2024)
# Like-named read-outs stand apart in the source and are kept apart here.
# T1: IL-18 receptor (IL-18Rα/IL-18Rβ) overexpressed on HEK-Blue IL-18 cells (Homo sapiens (Human), UniProt Q13478 19-541; O95256 20-599)
# T1 sequence 1: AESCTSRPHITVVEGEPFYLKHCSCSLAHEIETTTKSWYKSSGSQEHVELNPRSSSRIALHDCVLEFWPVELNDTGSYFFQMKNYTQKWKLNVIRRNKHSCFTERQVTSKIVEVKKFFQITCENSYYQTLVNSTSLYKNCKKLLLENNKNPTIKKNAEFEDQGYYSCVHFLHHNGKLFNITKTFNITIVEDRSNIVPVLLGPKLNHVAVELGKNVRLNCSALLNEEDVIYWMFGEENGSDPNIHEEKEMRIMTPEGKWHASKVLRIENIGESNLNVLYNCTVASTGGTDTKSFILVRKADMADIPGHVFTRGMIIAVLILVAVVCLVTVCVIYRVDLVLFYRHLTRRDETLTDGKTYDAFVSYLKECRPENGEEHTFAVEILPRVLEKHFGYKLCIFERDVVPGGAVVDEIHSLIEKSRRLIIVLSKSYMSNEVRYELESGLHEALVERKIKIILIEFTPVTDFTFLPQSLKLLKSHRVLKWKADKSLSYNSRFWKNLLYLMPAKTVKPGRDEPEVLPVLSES
# T1 sequence 2: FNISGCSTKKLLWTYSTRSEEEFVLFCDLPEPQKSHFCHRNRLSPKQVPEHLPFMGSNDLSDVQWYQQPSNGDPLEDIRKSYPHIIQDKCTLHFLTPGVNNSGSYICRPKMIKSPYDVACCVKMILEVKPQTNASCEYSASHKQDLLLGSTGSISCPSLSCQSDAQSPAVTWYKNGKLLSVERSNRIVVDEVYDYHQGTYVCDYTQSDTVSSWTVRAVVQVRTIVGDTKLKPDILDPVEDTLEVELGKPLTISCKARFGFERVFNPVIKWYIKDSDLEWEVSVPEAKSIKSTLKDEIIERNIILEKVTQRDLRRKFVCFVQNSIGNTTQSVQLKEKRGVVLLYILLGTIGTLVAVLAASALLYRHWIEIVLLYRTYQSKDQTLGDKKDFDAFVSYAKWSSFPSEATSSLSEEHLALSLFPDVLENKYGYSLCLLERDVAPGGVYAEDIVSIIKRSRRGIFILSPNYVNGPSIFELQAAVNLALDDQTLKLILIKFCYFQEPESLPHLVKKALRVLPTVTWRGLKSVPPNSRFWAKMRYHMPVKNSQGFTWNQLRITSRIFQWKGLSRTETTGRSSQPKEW
# B1: DGL218 (bispecific antibody)
# heavy 1: QVQLVESGGGLVQAGGSLRLSCAASGRTFSKHAMGWFRQAPGKEREFVAAIDWSGGSTYYADSVKGRFTISRDNAKNTVYLQMDSLKPEDTAVYYCAADSYTDYAQLWLPELESEYDYWGQGTLVTVSSCPPCPAPEAAGAPSVFLFPPKPKDTLMISRTPEVTCVVVDVSHEDPEVKFNWYVDGVEVHNAKTKPREEQYNSTYRVVSVLTVLHQDWLNGKEYKCKVSNKALPAPIEKTISKAKGQPREPQVCTLPPSRDELTKNQVSLSCAVKGFYPSDIAVEWESNGQPENNYKTTPPVLDSDGSFFLVSKLTVDKSRWQQGNVFSCSVMHEALHNHYTQKSLSLSPGWSHPQFEK
# heavy 2: not shown
# B2: DGL220 (bispecific antibody)
# heavy 1: QVQLVESGGGLVQAGGSLRLSCAASGRTFSKHAMGWFRQAPGKEREFVAAIDWSGGSTYYADSVKGRFTISRDNAKNTVYLQMDSLKPEDTAVYYCAADSYTDYAQLWLPELESEYDYWGQGTLVTVSSPLAPCPPCPAPEAAGAPSVFLFPPKPKDTLMISRTPEVTCVVVDVSHEDPEVKFNWYVDGVEVHNAKTKPREEQYNSTYRVVSVLTVLHQDWLNGKEYKCKVSNKALPAPIEKTISKAKGQPREPQVCTLPPSRDELTKNQVSLSCAVKGFYPSDIAVEWESNGQPENNYKTTPPVLDSDGSFFLVSKLTVDKSRWQQGNVFSCSVMHEALHNHYTQKSLSLSPGWSHPQFEK
# heavy 2: not shown
# B3: DGL093 (bispecific antibody)
# heavy 1: QVQLVESGGGLVQAGGSLRLSCAASGRTFSKHAMGWFRQAPGKEREFVAAIDWSGGSTYYADSVKGRFTISRDNAKNTVYLQMDSLKPEDTAVYYCAADSYTDYAQLWLPELESEYDYWGQGTQVTVSSDKTHTCPPCPAPEAAGGPSVFLFPPKPKDTLMISRTPEVTCVVVDVSHEDPEVKFNWYVDGVEVHNAKTKPREEQYNSTYRVVSVLTVLHQDWLNGKEYKCKVSNKALPAPIEKTISKAKGQPREPQVCTLPPSRDELTKNQVSLSCAVKGFYPSDIAVEWESNGQPENNYKTTPPVLDSDGSFFLVSKLTVDKSRWQQGNVFSCSVMHEALHNHYTQKSLSLSPG
# heavy 2: not shown
# B4: DGL219 (bispecific antibody)
# heavy 1: QVQLVESGGGLVQAGGSLRLSCAASGRTFSKHAMGWFRQAPGKEREFVAAIDWSGGSTYYADSVKGRFTISRDNAKNTVYLQMDSLKPEDTAVYYCAADSYTDYAQLWLPELESEYDYWGQGTLVTVSSPLAPDKTHTCPPCPAPEAAGAPSVFLFPPKPKDTLMISRTPEVTCVVVDVSHEDPEVKFNWYVDGVEVHNAKTKPREEQYNSTYRVVSVLTVLHQDWLNGKEYKCKVSNKALPAPIEKTISKAKGQPREPQVCTLPPSRDELTKNQVSLSCAVKGFYPSDIAVEWESNGQPENNYKTTPPVLDSDGSFFLVSKLTVDKSRWQQGNVFSCSVMHEALHNHYTQKSLSLSPGWSHPQFEK
# heavy 2: not shown
# B5: DGL214 (bispecific antibody)
# heavy 1: QVQLVESGGGLVQAGGSLRLSCAASGRTFSKHAMGWFRQAPGKEREFVAAIDWSGGSTYYADSVKGRFTISRDNAKNTVYLQMDSLKPEDTAVYYCAADSYTDYAQLWLPELESEYDYWGQGTLVTVSSDKTHTCPPCPAPEAAGAPSVFLFPPKPKDTLMISRTPEVTCVVVDVSHEDPEVKFNWYVDGVEVHNAKTKPREEQYNSTYRVVSVLTVLHQDWLNGKEYKCKVSNKALPAPIEKTISKAKGQPREPQVCTLPPSRDELTKNQVSLSCAVKGFYPSDIAVEWESNGQPENNYKTTPPVLDSDGSFFLVSKLTVDKSRWQQGNVFSCSVMHEALHNHYTQKSLSLSPGWSHPQFEK
# heavy 2: not shown
# B6: DGL215 (bispecific antibody)
# heavy 1: B5 heavy 1
# heavy 2: QLQLVESGGGLVQAGGSLRLSCAASRSITFSHNVMGWYRQAPGKQRELVASIGSGGSTNYVDSVKGRATISRDNAKKTVYLQMNSLKPEDTAVYYCGVVVGVYRGSLGQGTLVTVSSPLAPCPPCPAPEAAGAPSVFLFPPKPKDTLMISRTPEVTCVVVDVSHEDPEVKFNWYVDGVEVHNAKTKPREEQYNSTYRVVSVLTVLHQDWLNGKEYKCKVSNKALPAPIEKTISKAKGQPREPQVYTLPPCRDELTKNQVSLWCLVKGFYPSDIAVEWESNGQPENNYKTTPPVLDSDGSFFLYSKLTVDKSRWQQGNVFSCSVMHEALHNHYTQKSLSLSPGEPEA
# B7: DGL216 (bispecific antibody)
# heavy 1: B5 heavy 1
# heavy 2: QLQLVESGGGLVQAGGSLRLSCAASRSITFSHNVMGWYRQAPGKQRELVASIGSGGSTNYVDSVKGRATISRDNAKKTVYLQMNSLKPEDTAVYYCGVVVGVYRGSLGQGTLVTVSSGGGGSGGGGSGGGGSGGGGSCPPCPAPEAAGAPSVFLFPPKPKDTLMISRTPEVTCVVVDVSHEDPEVKFNWYVDGVEVHNAKTKPREEQYNSTYRVVSVLTVLHQDWLNGKEYKCKVSNKALPAPIEKTISKAKGQPREPQVYTLPPCRDELTKNQVSLWCLVKGFYPSDIAVEWESNGQPENNYKTTPPVLDSDGSFFLYSKLTVDKSRWQQGNVFSCSVMHEALHNHYTQKSLSLSPGEPEA
# B8: DGL217 (bispecific antibody)
# heavy 1: B5 heavy 1
# heavy 2: QLQLVESGGGLVQAGGSLRLSCAASRSITFSHNVMGWYRQAPGKQRELVASIGSGGSTNYVDSVKGRATISRDNAKKTVYLQMNSLKPEDTAVYYCGVVVGVYRGSLGQGTLVTVSSEKSYGPPCPPCPAPEAAGAPSVFLFPPKPKDTLMISRTPEVTCVVVDVSHEDPEVKFNWYVDGVEVHNAKTKPREEQYNSTYRVVSVLTVLHQDWLNGKEYKCKVSNKALPAPIEKTISKAKGQPREPQVYTLPPCRDELTKNQVSLWCLVKGFYPSDIAVEWESNGQPENNYKTTPPVLDSDGSFFLYSKLTVDKSRWQQGNVFSCSVMHEALHNHYTQKSLSLSPGEPEA
# B9: DGL222 (bispecific antibody)
# heavy 1: QVQLVESGGGLVQAGGSLRLSCAASGRTFSKHAMGWFRQAPGKEREFVAAIDWSGGSTYYADSVKGRFTISRDNAKNTVYLQMDSLKPEDTAVYYCAADSYTDYAQLWLPELESEYDYWGQGTLVTVSSEKSYGPPCPPCPAPEAAGAPSVFLFPPKPKDTLMISRTPEVTCVVVDVSHEDPEVKFNWYVDGVEVHNAKTKPREEQYNSTYRVVSVLTVLHQDWLNGKEYKCKVSNKALPAPIEKTISKAKGQPREPQVCTLPPSRDELTKNQVSLSCAVKGFYPSDIAVEWESNGQPENNYKTTPPVLDSDGSFFLVSKLTVDKSRWQQGNVFSCSVMHEALHNHYTQKSLSLSPGWSHPQFEK
# heavy 2: not shown
# B10: DGL221 (bispecific antibody)
# heavy 1: QVQLVESGGGLVQAGGSLRLSCAASGRTFSKHAMGWFRQAPGKEREFVAAIDWSGGSTYYADSVKGRFTISRDNAKNTVYLQMDSLKPEDTAVYYCAADSYTDYAQLWLPELESEYDYWGQGTLVTVSSGGGGSGGGGSGGGGSGGGGSCPPCPAPEAAGAPSVFLFPPKPKDTLMISRTPEVTCVVVDVSHEDPEVKFNWYVDGVEVHNAKTKPREEQYNSTYRVVSVLTVLHQDWLNGKEYKCKVSNKALPAPIEKTISKAKGQPREPQVCTLPPSRDELTKNQVSLSCAVKGFYPSDIAVEWESNGQPENNYKTTPPVLDSDGSFFLVSKLTVDKSRWQQGNVFSCSVMHEALHNHYTQKSLSLSPGWSHPQFEK
# heavy 2: not shown
# Tests used:
# Assay in all cases: cell-based or functional assay
# [1] = target: T1, IL-18 receptor (IL-18Rα/IL-18Rβ) …
# [2] = target: T1, IL-18 receptor (IL-18Rα/IL-18Rβ) …; remark: listed apart in the source
# [3] = target: T1, IL-18 receptor (IL-18Rα/IL-18Rβ) …; remark: listed apart in the source
HEK-Blue IL-18: Abs 405 at 100 nM [1] [Abs],HEK-Blue IL-18: Fold over Background [1] [fold],HEK-Blue IL-18: Abs405 (Emax) [2] [Abs],HEK-Blue IL-18: EC50 [2] [pM],HEK-Blue IL-18: Fold over Background [3] [fold],Binder
1.3,5.5,,,,B1
1.5,6.6,,,,B2
0.9,4.1,1.38,8.3,9.2,B3
1,4.4,,,,B4
1.1,4.7,,,,B5
1.4,6.1,,,,B6
0.8,3.4,,,,B7
1.3,5.6,,,,B8
1.3,5.5,,,,B9
0.6,2.4,,,,B10
